Test results: patent US20040176573A1

How the values were obtained:
[1] = target: HLA-A11 (human); experiment: assembly assay: stabilisation of 35S-labelled HLA-A11 from TAP-deficient cell lysate, W6/32 immunoprecipitation, IEF gel; conditions: remark: other sources report otherwise
[2] = target: HLA-B7 (human); experiment: assembly assay for peptide binding to MHC class I (HLA-B7)

Binder	C50 [1] [µM]	C50 [2] [µM]
LAQCFFCFK [Sur 54-62]	0.4	
QPRAPIRPI (modifications not checked) [C6]		0.1
RPPIFIRRL (modifications not checked) [C7]		0.5
